From publication PMC3240820 (Structure (London, England : 1993), 2011)
Like-named read-outs stand apart in the source and are kept apart here.

Legend:
Caskin1 CID-2SAMs G520E = Caskin1 CID-2SAMs G520E (human, UniProt Q8WXD9 375-605, G520E); assay: SEC
crystal structure = target: the molecule itself; assay: crystal structure
[1] = target: T1, CaMK domain of CASK (CASK310), residues 1-310 (UniProt O14936 1-310); assay: co-precipitation on dialysis into low salt
T1 sequence (looked up): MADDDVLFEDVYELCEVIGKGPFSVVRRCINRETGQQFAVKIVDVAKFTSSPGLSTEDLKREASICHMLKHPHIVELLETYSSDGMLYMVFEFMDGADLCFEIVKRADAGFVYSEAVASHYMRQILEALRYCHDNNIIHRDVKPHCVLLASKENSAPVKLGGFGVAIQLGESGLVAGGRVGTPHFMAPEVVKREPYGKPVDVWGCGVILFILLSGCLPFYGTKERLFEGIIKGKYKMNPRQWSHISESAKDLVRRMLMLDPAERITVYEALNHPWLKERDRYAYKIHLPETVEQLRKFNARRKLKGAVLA

[2] = target: the molecule itself

Chain of Caskin1 CID-2SAMs G520E (Q8WXD9 375-605 G520E): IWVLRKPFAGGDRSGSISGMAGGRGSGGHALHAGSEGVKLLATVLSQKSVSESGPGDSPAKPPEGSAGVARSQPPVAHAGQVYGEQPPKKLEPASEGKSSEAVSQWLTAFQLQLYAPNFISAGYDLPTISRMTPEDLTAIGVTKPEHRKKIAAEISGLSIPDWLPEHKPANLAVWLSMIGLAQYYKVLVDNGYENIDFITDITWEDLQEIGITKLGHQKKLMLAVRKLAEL

B1: Caskin1 CID-2SAMs G566K (domain or fragment)
chain: not shown
B1: binds (Caskin1 CID-2SAMs G520E).

B2: Caskin1 6His-(E470-G615) (domain or fragment)
chain: not shown
B2: binds (crystal structure).

B3: Caskin1 CID-2SAMs (residues 375-605) (domain or fragment)
chain: not shown
B3: binds [1].

B4: Caskin1 SAMs (E470-G615) with the His-tag removed (domain or fragment)
chain: not shown
B4: binds [2].
